The labels stand for the following.
B3: ASPP1 C-terminal domain (887-1090) (domain or fragment)
chain: NPLALLLDASLEGEFDLVQRIIYEVEDPSKPNDEGITPLHNAVCAGHHHIVKFLLDFGVNVNAADSDGWTPLHCAASCNSVHLCKQLVESGAAIFASTISDIETAADKCEEMEEGYIQCSQFLYGVQEKLGVMNKGVAYALWDYEAQNSDELSFHEGDALTILRRKDESETEWWWARLGDREGYVPKNLLGLYPRIKPRQRTLA
notes: also called ASPP1 CTD
B8: ASPP2 C-terminal domain (925-1128) (domain or fragment)
chain: NPLALLLDSSLEGEFDLVQRIIYEVDDPSLPNDEGITALHNAVCAGHTEIVKFLVQFGVNVNAADSDGWTPLHCAASCNNVQVCKFLVESGAAVFAMTYSDMQTAADKCEEMEEGYTQCSQFLYGVQEKMGIMNKGVIYALWDYEPQNDDELPMKEGDCMTIIHREDEDEIEWWWARLNDKEGYVPRNLLGLYPRIKPRQRSLA
notes: also called ASPP2 CTD

What all share (test): ITC; 450 or 300 uM NS5A PRR peptide (syringe) titrated to 30 uM ASPP CTD or SH3 domain (cell), 12 °C, 25 mM HEPES pH 7.5, 150 mM NaCl, 500 uM TCEP; 25 steps of 10 ul; AB hetero association model (SEDPHAT)
Holding throughout (conditions): both partners purified

Test [1] addresses B3.
Test [2] concerns the target B8.
The target of test [3] is T1, HCV [1a.1] NS5A PRR peptide (Hepatitis C virus genotype 1a (strain 1)).
T1 construct: source: synthetic peptide, custom made (TUCF)

The term Kd denotes the constant that tells how readily two partners part at equilibrium. The low end stands for higher affinity, the high end for lower affinity.

B1: HCV [2a.JFH-1] NS5A PRR peptide (peptide)
peptide: WLPPPKKAPTPPPRRRRTVGL
notes: also called NS5A (2a); NS5A PRR peptide (JFH-1); source: synthetic peptide, custom made (TUCF)
Consider B1, for which the Kd stood at 3.78 µM in test [1] and 42.4 nM in test [2].

B2: Fyn SH3 domain (85-142) (domain or fragment)
chain: not shown
As to B2, the Kd in test [3] is 5.89 µM.

B3 had a Kd in test [3] of 9.27 µM.

B4: LASP1 SH3 domain (205-261) (domain or fragment)
chain: KRYRAVYDYSAADEDEVSFQDGDTIVNVQQIDDGWMYGTVERTGDTGMLPANYVEAI
With B4, the Kd in test [3] was 2.3 µM.

B5: HCV [1b.Con1] NS5A PRR peptide (peptide)
peptide: WLPPAKAPPIPPPRRKRTVVL
notes: source: synthetic peptide, custom made (TUCF)
For B5, the Kd was 6.7 µM in test [1] and 75.8 nM in test [2].

B6: Lyn SH3 domain (65-122) (domain or fragment)
chain: GDIVVALYPYDGIHPDDLSFKKGEKMKVLEEHGEWWKAKSLLTKKEGFIPSNYVAKLN
B6: the Kd in test [3] was 5.1 µM.

B7: HCV [4a.ED43] NS5A PRR peptide (peptide)
peptide: WLPPAKQPPVPSPRRKRTVQL
notes: as for B5
Turning to B7, the Kd is 42.8 µM in test [1] and 741 nM in test [2].

Regarding B8, the Kd in test [3] came out at 0.234 µM.

B9: Grb2 SH3 domain (1-58) (domain or fragment)
chain: MEAIAKYDFKATADDELSFKRGDILKVLNEECDQNWYKAELNGKDGFIPKNYIEMKPH
B9 showed a Kd in test [3] of 7.96 µM.

Values taken from paper PMC7615710, “ASPP2 binds to hepatitis C virus NS5A protein via an SH3 domain/PxxP motif-mediated interaction and potentiates infection” (The Journal of general virology, 2023).
